Reference: article PMC9053816, “A polypeptide model for toxic aberrant proteins induced by aminoglycoside antibiotics” (PLoS ONE, 2022)
*: point of attachment. FITC = O=C1OC2(c3ccc(O)cc3Oc3cc(O)ccc32)c2ccc(NC(=S)*)cc21

B1: KL peptide, FITC-TEKAKLVIKLLALGKTEQ (KL decapeptide of ARF48 with flanking extensions) (peptide)
peptide: {FITC}-TEKAKLVIKLLALGKTEQ-NH2
notes: ARF48 is encoded by a +1 alternate reading frame of an Arabidopsis thaliana cDNA and is not a natural protein; The core decapeptide comes from an aberrant alternate-frame polypeptide, not from a natural protein; also called synthetic KL decapeptide; source: synthetic peptide (Peptide 2.0, Inc.)
B2: NR peptide, FITC-TEKANRLLLTGKTEQ (canonical DnaK peptide substrate NRLLLTG with flanking extensions) (peptide)
peptide: {FITC}-TEKANRLLLTGKTEQ-NH2
notes: canonical DnaK peptide substrate NRLLLTG flanked by the N-terminal extension TEKA and the C-terminal extension KTEQ; source: synthetic peptide (Peptide 2.0, Inc.)

Target: T1, 6His-DnaK (E. coli DnaK protein) (E. coli, UniProt P0A6Y8 1-638)
T1 construct: molecular chaperone DnaK of E. coli, from the ASKA expression clone; The functional rows concern endogenous DnaK in E. coli BL21 cells; source: purified from the ASKA expression clone by chromatography on Ni-NTA agarose
T1 sequence (P0A6Y8 whole entry): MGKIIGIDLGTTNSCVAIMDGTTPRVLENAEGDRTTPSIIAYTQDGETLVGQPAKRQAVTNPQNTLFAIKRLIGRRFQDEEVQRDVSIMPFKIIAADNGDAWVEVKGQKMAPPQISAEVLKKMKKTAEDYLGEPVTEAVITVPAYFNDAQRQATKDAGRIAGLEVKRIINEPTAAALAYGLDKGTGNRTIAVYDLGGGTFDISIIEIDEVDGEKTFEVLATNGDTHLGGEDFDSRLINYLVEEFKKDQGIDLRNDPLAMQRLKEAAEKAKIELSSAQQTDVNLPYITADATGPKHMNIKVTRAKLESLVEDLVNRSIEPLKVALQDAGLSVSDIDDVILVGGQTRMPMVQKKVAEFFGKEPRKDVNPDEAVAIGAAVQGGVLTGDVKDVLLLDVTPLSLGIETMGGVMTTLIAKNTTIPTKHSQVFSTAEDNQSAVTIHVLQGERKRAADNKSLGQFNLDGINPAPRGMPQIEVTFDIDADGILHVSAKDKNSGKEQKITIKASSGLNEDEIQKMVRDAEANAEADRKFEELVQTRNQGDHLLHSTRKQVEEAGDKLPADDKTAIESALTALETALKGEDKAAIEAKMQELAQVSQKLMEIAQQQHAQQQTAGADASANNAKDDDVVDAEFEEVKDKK
Assay: MST; 20 nM fluorescein-labelled peptide incubated with varying concentrations of DnaK; 50 mM Tris pH 7.4, 150 mM NaCl, 10 mM MgCl2, 0.05% Tween-20, 0.05% BSA; 1 h at 20°C; Monolith NT.115; three independent trials
Settings: both partners purified

Binder	binding result
B1	binds
B2	binds
